Laboratory results: US20240247080A1, “GLP1/GIP/NPY2 RECEPTOR TRIPLE AGONISTS” (Boehringer Ingelheim International GmbH, priority 2022, published 2024)
Positions count from the first letter of the chain named. Starred links: 1 amine or outer side, 2 acyl side, 3 side chain; linkers in the order of their positions; H or OH if unused. Non-standard residues stand in square brackets, D forms with d. Groups on a side chain read outwards from the residue. No end group written: not given here. *: point of attachment. C20 diacid = O=C(O)CCCCCCCCCCCCCCCCCCC(=O)*; C18 diacid = O=C(O)CCCCCCCCCCCCCCCCC(=O)*; γGlu = O=C(O)[C@H](CCC(=O)[*:2])N[*:1]; εLys = N[C@@H](CCCCN[*:1])C(=O)[*:2]; AEEA = NCCOCCOCC(=O)O; Aib = CC(C)(N)C(=O)O

T1: human GIP receptor (human, UniProt P48546 22-466)
T1 sequence (looked up): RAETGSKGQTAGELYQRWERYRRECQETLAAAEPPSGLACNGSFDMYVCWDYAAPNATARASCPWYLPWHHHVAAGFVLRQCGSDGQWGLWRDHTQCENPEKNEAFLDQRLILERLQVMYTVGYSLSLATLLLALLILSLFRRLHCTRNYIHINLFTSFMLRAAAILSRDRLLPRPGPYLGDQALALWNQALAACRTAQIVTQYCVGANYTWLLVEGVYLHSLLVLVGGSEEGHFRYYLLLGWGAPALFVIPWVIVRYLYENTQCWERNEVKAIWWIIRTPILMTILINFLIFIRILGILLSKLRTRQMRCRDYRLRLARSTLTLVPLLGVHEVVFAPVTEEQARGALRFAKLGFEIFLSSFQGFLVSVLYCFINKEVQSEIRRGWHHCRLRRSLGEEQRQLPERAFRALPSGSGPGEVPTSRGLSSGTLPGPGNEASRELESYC

T2: human neuropeptide Y2 (NPY2) receptor (human, UniProt P49146 1-381)
T2 sequence (looked up): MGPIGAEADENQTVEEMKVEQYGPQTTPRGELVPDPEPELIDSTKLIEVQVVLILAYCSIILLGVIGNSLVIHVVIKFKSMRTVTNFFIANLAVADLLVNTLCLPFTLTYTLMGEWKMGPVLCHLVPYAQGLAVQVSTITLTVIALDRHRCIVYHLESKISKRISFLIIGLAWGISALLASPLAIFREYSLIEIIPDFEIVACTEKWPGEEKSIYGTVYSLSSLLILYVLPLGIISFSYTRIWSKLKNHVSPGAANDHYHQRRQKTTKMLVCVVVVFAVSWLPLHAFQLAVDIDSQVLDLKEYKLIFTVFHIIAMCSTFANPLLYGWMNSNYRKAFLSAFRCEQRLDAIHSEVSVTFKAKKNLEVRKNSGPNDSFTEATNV

B1: Compound 36 (peptide)
peptide: YXEGTFTSDYSIXLEKQAQXEFVQWLIKGGPSSGASLRHYYNWLTRQRY
modifications: Aib at 2, 13, 20; K28 side chain: C20DA-gGlu-gGlu-gGlu-gGlu-gGlu-OEG-OEG; C-terminal NH2
B2: Compound 38 (peptide)
peptide: B1 peptide with E21A, Q24E, A35V, L37X
modifications: Aib at 2, 13, 20, 37; K28 side chain: C20DA-gGlu-gGlu-gGlu-gGlu-gGlu-gGlu-eLys; C-terminal NH2
B3: Compound 40 (peptide)
peptide: B1 peptide with E21A, Q24E, G34Y, A35V
modifications: Aib at 2, 13, 20; K28 side chain: C20DA-gGlu-gGlu-gGlu-gGlu-gGlu-gGlu-eLys; C-terminal NH2
B4: Compound 41 (peptide)
peptide: B1 peptide with E21A, Q24E, G34P, A35Q
modifications: Aib at 2, 13, 20; K28 side chain: C20DA-gGlu-gGlu-gGlu-gGlu-gGlu-gGlu-eLys; C-terminal NH2
B5: Compound 50 (peptide)
peptide: B1 peptide with E21A, Q24E, G34Y, A35E
modifications: Aib at 2, 13, 20; K28 side chain: C20DA-gGlu-gGlu-gGlu-gGlu-gGlu-gGlu-eLys; C-terminal NH2
B6: Compound 48 (peptide)
peptide: B1 peptide with E21A, Q24E, S33E, G34P, A35Q, L37I
modifications: Aib at 2, 13, 20; K28 side chain: C20DA-gGlu-gGlu-gGlu-gGlu-gGlu-gGlu-eLys; C-terminal NH2
B7: Compound 49 (peptide)
peptide: B1 peptide with E21A, Q24E, A35E, L37X
modifications: Aib at 2, 13, 20, 37; K28 side chain: C20DA-gGlu-gGlu-gGlu-gGlu-gGlu-gGlu-eLys; C-terminal NH2
B8: Compound 5 (peptide)
peptide: B1 peptide with E21A, Q24E
modifications: Aib at 2, 13, 20; DLeu 37; DHis 39; DArg 46; DTyr 49; K28 side chain: C20DA-gGlu-gGlu-gGlu-gGlu-gGlu-gGlu-eLys; C-terminal NH2
B9: Compound 39 (peptide)
peptide: B1 peptide with E21A, Q24E, L37X
modifications: Aib at 2, 13, 20, 37; NMeR 48; K28 side chain: C20DA-gGlu-gGlu-gGlu-gGlu-gGlu-gGlu-eLys; C-terminal NH2
B10: Compound 44 (peptide)
peptide: B1 peptide with E21A, Q24E, A35Q, L37X
modifications: Aib at 2, 13, 20, 37; K28 side chain: C20DA-gGlu-gGlu-gGlu-gGlu-gGlu-gGlu-eLys; C-terminal NH2
B11: Compound 37 (peptide)
peptide: B1 peptide with E21A, S32E
modifications: Aib at 2, 13, 20; K28 side chain: C20DA-gGlu-gGlu-gGlu-gGlu-gGlu-gGlu-eLys; C-terminal NH2
B12: Compound 51 (peptide)
peptide: B1 peptide with Q19E, E21A
modifications: Aib at 2, 13, 20; K28 side chain: C18DA-gGlu-gGlu-gGlu-gGlu-gGlu-gGlu-eLys; C-terminal NH2
B13: Compound 46 (peptide)
peptide: B1 peptide with Q17E, E21K, Q24E
modifications: Aib at 2, 13, 20; K28 side chain: C20DA-gGlu-gGlu-gGlu-gGlu-gGlu-gGlu-eLys; C-terminal NH2
B14: Compound 47 (peptide)
peptide: B1 peptide with E21A, A35V
modifications: Aib at 2, 13, 20; K28 side chain: C20DA-gGlu-gGlu-gGlu-gGlu-gGlu-gGlu-eLys; C-terminal NH2
B15: Compound 42 (peptide)
peptide: B1 peptide with E21A, Q24E, S33E, G34Y, A35V, L37I
modifications: Aib at 2, 13, 20; K28 side chain: C20DA-gGlu-gGlu-gGlu-gGlu-gGlu-gGlu-eLys; C-terminal NH2

Biological target: human GLP-1 receptor (human, UniProt P43220 24-463)
Test: cell-based or functional assay

Row | Binder | EC50, CreLuc assay, 0.5% hP | EC50, CreLuc assay, 100% hP
1 | B1 | 0.28 nM | 7.78 nM
2 | B2 | 0.06 nM | 1.28 nM
3 | B3 | 0.46 nM | 9.04 nM
4 | B4 | 0.06 nM | 1.47 nM
5 | B5 | 0.13 nM | 3.75 nM
6 | B6 | 0.07 nM | 3.1 nM
7 | B7 | 0.12 nM | 2.08 nM
8 | B8 | 0.11 nM | 1.43 nM
9 | B9 | 0.09 nM | 0.82 nM
10 | B10 | 0.07 nM | 2.12 nM
11 | B11 | 0.11 nM | 5.13 nM
12 | B12 | 0.15 nM | 4.66 nM
13 | B13 | 0.21 nM | 5.94 nM
14 | B14 | 0.07 nM | 1.14 nM
15 | B15 | 0.36 nM | 7.15 nM
16 | Y[Aib]EGTFTSDYSI[Aib]LEKQAQ[Aib]AFVQWLIKGGQRYYASLRHYYNWLTRQRY-NH2 (not fully specified (residue 28); also: TFA salt) [Compound 6] | 0.9 nM | 42.8 nM
17 | Y[Aib]EGTFTSDYSI[Aib]LEEQAQ[Aib]AFVQWLIK([εLys-AEEA-γGlu-γGlu-γGlu-γGlu-γGlu-C20 diacid])GGPSSGASLRHYYNWLTRQRY-NH2 (also: TFA salt) [Compound 45] | 0.11 nM | 1.6 nM
18 | Y[Aib]EGTFTSDYSI[Aib]LEKQAQ[Aib]EFVQWLIK([εLys-γGlu-γGlu-γGlu-γGlu-γGlu-γGlu-γGlu-C20 diacid])GGPSSGASLRHYYNWLTRQRY-NH2 (also: TFA salt) [Compound 43] | 0.41 nM | 5.91 nM
19 | Y[Aib]EGTFTSDYSI[Aib]LEKQAQ[Aib]AFVQWLIK([AEEA-AEEA-Glu-Glu-Glu-Glu-C18 diacid])GGPESGASLRHYYNWLTRQRY-NH2 (also: TFA salt) [Compound 52] | 0.09 nM | 3.17 nM

Biological target: T1, human GIP receptor
Test: cell-based or functional assay

Row | Binder | EC50, CreLuc assay, 0.5% hP | EC50, CreLuc assay, 100% hP
20 | B1 | 0.26 nM | 1.57 nM
21 | B2 | 0.04 nM | 0.7 nM
22 | B3 | 0.48 nM | 4.36 nM
23 | B4 | 0.07 nM | 0.62 nM
24 | B5 | 0.12 nM | 1.47 nM
25 | B6 | 0.07 nM | 0.68 nM
26 | B7 | 0.07 nM | 1.25 nM
27 | B8 | 0.17 nM | 1.07 nM
28 | B9 | 0.06 nM | 0.4 nM
29 | B10 | 0.05 nM | 1.14 nM
30 | B11 | 0.24 nM | 1.44 nM
31 | B12 | 0.23 nM | 1.37 nM
32 | B13 | 0.2 nM | 1.21 nM
33 | B14 | 0.25 nM | 0.73 nM
34 | B15 | 0.15 nM | 1.34 nM
35 | Y[Aib]EGTFTSDYSI[Aib]LEKQAQ[Aib]AFVQWLIKGGQRYYASLRHYYNWLTRQRY-NH2 (not fully specified (residue 28); also: TFA salt) [Compound 6] | 2.99 nM | 31.1 nM
36 | Y[Aib]EGTFTSDYSI[Aib]LEEQAQ[Aib]AFVQWLIK([εLys-AEEA-γGlu-γGlu-γGlu-γGlu-γGlu-C20 diacid])GGPSSGASLRHYYNWLTRQRY-NH2 (also: TFA salt) [Compound 45] | 0.14 nM | 1.15 nM
37 | Y[Aib]EGTFTSDYSI[Aib]LEKQAQ[Aib]EFVQWLIK([εLys-γGlu-γGlu-γGlu-γGlu-γGlu-γGlu-γGlu-C20 diacid])GGPSSGASLRHYYNWLTRQRY-NH2 (also: TFA salt) [Compound 43] | 0.64 nM | 1.97 nM
38 | Y[Aib]EGTFTSDYSI[Aib]LEKQAQ[Aib]AFVQWLIK([AEEA-AEEA-Glu-Glu-Glu-Glu-C18 diacid])GGPESGASLRHYYNWLTRQRY-NH2 (also: TFA salt) [Compound 52] | 0.12 nM | 0.65 nM

Biological target: T2, human neuropeptide Y2 (NPY2) receptor
Test: cell-based or functional assay

Row | Binder | EC50, CreLuc assay, 0.5% hP | EC50, CreLuc assay, 100% hP
39 | B1 | 8.03 nM | 26.8 nM
40 | B2 | 6.9 nM | 17.8 nM
41 | B3 | 11.9 nM | 26.4 nM
42 | B4 | 10.2 nM | 34.6 nM
43 | B5 | 11.8 nM | 52.5 nM
44 | B6 | 9.77 nM | 35.2 nM
45 | B7 | 12.5 nM | 36.8 nM
46 | B8 | > 99.9 nM | > 999 nM
47 | B9 | 26.9 nM | 61.5 nM
48 | B10 | 9.35 nM | 24.5 nM
49 | B11 | 9.53 nM | 35.5 nM
50 | B12 | 13.8 nM | 42.2 nM
51 | B13 | 10.2 nM | 36 nM
52 | B14 | 7.9 nM | 30.5 nM
53 | B15 | 8.82 nM | 19.1 nM
54 | Y[Aib]EGTFTSDYSI[Aib]LEKQAQ[Aib]AFVQWLIKGGQRYYASLRHYYNWLTRQRY-NH2 (not fully specified (residue 28); also: TFA salt) [Compound 6] | 16.9 nM | 86.7 nM
55 | Y[Aib]EGTFTSDYSI[Aib]LEEQAQ[Aib]AFVQWLIK([εLys-AEEA-γGlu-γGlu-γGlu-γGlu-γGlu-C20 diacid])GGPSSGASLRHYYNWLTRQRY-NH2 (also: TFA salt) [Compound 45] | 17.2 nM | 46.5 nM
56 | Y[Aib]EGTFTSDYSI[Aib]LEKQAQ[Aib]EFVQWLIK([εLys-γGlu-γGlu-γGlu-γGlu-γGlu-γGlu-γGlu-C20 diacid])GGPSSGASLRHYYNWLTRQRY-NH2 (also: TFA salt) [Compound 43] | 13.1 nM | 21.1 nM
57 | Y[Aib]EGTFTSDYSI[Aib]LEKQAQ[Aib]AFVQWLIK([AEEA-AEEA-Glu-Glu-Glu-Glu-C18 diacid])GGPESGASLRHYYNWLTRQRY-NH2 (also: TFA salt) [Compound 52] | 18.7 nM | 93.5 nM
